# Where no end group is shown, it is not given here. [ ]: non-standard residue; d: D form. The star is where a group is joined. Lys(N3) = [N-]=[N+]=NCCCC[C@H](N)C(=O)O; N3 = azido group, [N-]=[N+]=N*; PEG = not defined here
# T1: S-protein (UniProt P61823 47-150)
# T1 construct: also called purified S-protein; commercial S-protein (Sigma Chemical)
# T1 sequence (looked up): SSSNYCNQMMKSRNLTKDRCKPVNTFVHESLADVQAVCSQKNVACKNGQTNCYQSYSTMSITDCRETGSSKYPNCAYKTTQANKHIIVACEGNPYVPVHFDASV
# Molecular target: T1, S-protein
# Assay: S-protein incubated on a glass slide with immobilized azido-S15; detected by activity assay and immunostaining
# Experimental: An amine-derivatized glass slide was treated with an excess of PEG having succinimidyl ester termini followed by diphenylphosphinomethanethiol resulting in a surface-bound phosphinothioester, as illustrated in Scheme 2. It is believed that the PEG layer (Mr) 3,400) prevented the non-specific attachment of protein to the glass surface. Serial dilutions of (N_3)Lys1 S15 and (N_3)Lys1 S15 were spotted on this phosphinothioester-derivatized slide. The peptide concentrations were 5.64 µM-56.4 pM for (N_3)Lys1 S15 and 4.38 µM-43.8 pM for (N_3)Lys1 S15. Afterwards, S-protein was spotted on the slide, which was washed with buffer. If S15 was successfully immobilized to the slide through the Staudinger ligation, the S-protein would bind to the immobilized S15 resulting in immobilized RNase S'.
# Two types of assays were used to detect the presence of immobilized RNase S'. First, the ribonucleolytic activity of each spot was determined with a fluorogenic substrate. […]
# RNase S' attached to the plate was visualized by immunostaining. […] RNase S' was detected by using a Fluorinate SI fluorescence scanner (Molecular Dynamics). (See FIG. 1A) The quantity of immobilized protein was determined with IMAGEQUANT densitometry software (Molecular Dynamics) and a standard curve generated by spotting various concentrations of Alexa Fluor® 488-conjugated secondary antibody.
binder,measurement,value
[Lys(N3)]ETAAAKFERQHMDS (also called azido-S15) [(N3)Lys1 S15],binding result,binds
"{N3-PEG}-KETAAAKFERQHMDS (reading uncertain, Synthetic S15 (first 15 residues of S-peptide) carrying N3-PEG at its N-terminus; In the assay it was immobilized on a phosphinothioester-derivatized glass slide; also called azido-S15; azido-peptide (main-chain azide)) [N3-PEG-S15]",binding result,binds

# Source: patent publication US7256259 (WISCONSIN ALUMNI RESEARCH FOUNDATION, dated 2007)
